Source: the supplement of paper PMC9732359
± gives the uncertainty stated by the source.

Assay: protein stability index of a GFP-peptide fusion (yeast GPS) (PSI 1-4); higher = more stable; sorted into four equal gates, so the index is relative within each strain
Procedure, shortened: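 Tiled 17-residue peptides from yeast proteins were fused downstream of GFP on a plasmid that also expresses Cherry, and the pooled library was carried in yeast. Mid-log cultures grown in leucine-free medium were sorted into four equal gates by GFP/Cherry fluorescence ratio. Plasmids from each gate were PCR-amplified and Illumina-sequenced, and reads were assigned to strains by barcodes. Each peptide's protein stability index is the sum, over gates, of the gate's read frequency multiplied by its gate number.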

Sequence	protein stability index (doa10∆)	protein stability index (pdr5∆)	protein stability index (san1∆)	protein stability index (ubr1∆)
LAIADVETKLETKVDEL [DSN1]	3.04 ± 0.084	3.09 ± 0.074	3.19 ± 0.05	2.85 ± 0.087
LVEEKTPGLTFNAIDLA [RPC82]	3.23 ± 0.12	3.29 ± 0.11	3.25 ± 0.057	3.27 ± 0.086
EEKGWVPVTKLGRLVKA [RPS2]	3.45 ± 0.086	3.44 ± 0.13	3.51 ± 0.072	3.48 ± 0.072
LREHFKNTEEGKALVHH [QCR6]	2.87 ± 0.11	3.23 ± 0.1	3.34 ± 0.057	3.09 ± 0.099
LFGSKPQGSTTNGGLFG [YGR119C/NUP57]	3.38 ± 0.086	3.47 ± 0.067	3.43 ± 0.045	3.28 ± 0.037
EFDRRILKKSLMTSHTK [RTT102]	2.94 ± 0.17	2.98 ± 0.092	2.4 ± 0.15	3.29 ± 0.093
LKEYQSKIIVFPRNGKA [RPL13A]	3.04 ± 0.088	2.9 ± 0.091	2.98 ± 0.055	3 ± 0.076
FRALGIIPDGEILEHIC [RPB2]	2.43 ± 0.057	2.55 ± 0.12	2.46 ± 0.089	2.79 ± 0.047
TNILTKVDINADSAVNR [PRP28]	3.37 ± 0.062	3.4 ± 0.074	3.3 ± 0.055	3.31 ± 0.059
STSNTPSPPNVIITDGT [YDL088C/ASM4]	2.79 ± 0.031	2.95 ± 0.031	2.9 ± 0.035	2.956 ± 0.029
PVDHPHGGGNHQHIGKA [RPL2A]	3.11 ± 0.11	3.31 ± 0.085	3.09 ± 0.051	3.22 ± 0.071
QQQSSQNTVPNVLNQIN [GAL11]	1.66 ± 0.063	1.82 ± 0.053	1.71 ± 0.078	2.01 ± 0.042
GVNGYIWLRKTSQMDLA [RRP4]	3.07 ± 0.077	2.74 ± 0.068	3.07 ± 0.097	2.9 ± 0.098
NQTNINSLAVRGKDCTV [SCL1]	2.83 ± 0.14	3.26 ± 0.088	3.29 ± 0.068	3.19 ± 0.12
TFPPEVLARISPELSLQ [RRP43]	2.32 ± 0.073	2.87 ± 0.11	2.53 ± 0.081	2.67 ± 0.071
SLKKVDEIKAQRKEIKD [SMC4]	–	2.94 ± 0.18	3.29 ± 0.16	3.4 ± 0.25
YREAPVIYRGPEPSHID [RET1]	2.83 ± 0.22	3.07 ± 0.23	3.21 ± 0.16	3.36 ± 0.16
ATIRETYEIICDQTKSV [RRP43]	2.87 ± 0.06	3 ± 0.065	2.8 ± 0.063	2.98 ± 0.045
DAVEGVSECIILGQTMS [RPO31]	1.7 ± 0.21	1.46 ± 0.077	1.45 ± 0.12	1.56 ± 0.13
VRAVNTGMEPGKTSFFQ [RPP0]	2.58 ± 0.16	2.78 ± 0.15	2.8 ± 0.18	2.42 ± 0.25
AAREKKIRELEAELSST [YIL149C/MLP2]	2.46 ± 0.29	3.25 ± 0.25	–	2.89 ± 0.15
FKQAKERVMKNKVEENL [RPT2]	3.11 ± 0.11	3.27 ± 0.061	3 ± 0.14	3.29 ± 0.11
EYMVQYIDEMYNHNDGG [RRI1]	3.03 ± 0.052	3.24 ± 0.076	3.21 ± 0.14	3.19 ± 0.087
SMILGVAASIIPFPDHN [RPB2]	2.21 ± 0.12	2.41 ± 0.12	2.27 ± 0.21	2.8 ± 0.094
NGLAIRRAAYGVVRYVM [RPS3]	2.06 ± 0.057	1.91 ± 0.064	1.77 ± 0.074	1.61 ± 0.053
NTYKRLVIGIFKRDLLR [YJL039C/NUP192]	2.5 ± 0.082	1.58 ± 0.083	1.31 ± 0.13	1.59 ± 0.055
TENDIKALQSIGQLIGE [RPT4]	3.21 ± 0.082	3.06 ± 0.095	2.74 ± 0.099	3.23 ± 0.045

Sequence	protein stability index (doa10∆)	protein stability index (pdr5∆)	protein stability index (san1∆)	protein stability index (ubr1∆)
ILTTAVGLVSPSFMLKH [RPN1]	1.96 ± 0.16	1.93 ± 0.12	1.3 ± 0.13	1.52 ± 0.077
NVPGVETANVASLNLLQ [RPL4A]	2.71 ± 0.053	3.05 ± 0.055	2.86 ± 0.044	2.87 ± 0.041
RNQILVSITDAPKIHIL [YMR129W/POM152]	1.43 ± 0.041	1.35 ± 0.036	1.26 ± 0.057	1.61 ± 0.038
STSNALKVLSGDEGYNE [SNF12]	3.39 ± 0.11	3.24 ± 0.11	3.04 ± 0.059	3.5 ± 0.13
SPQAVSSFVRQELAKSI [PRE1]	2.33 ± 0.11	2.33 ± 0.072	2.1 ± 0.19	2.31 ± 0.059
CIIFMDEVDAIGGRRFS [RPT4]	2.38 ± 0.089	2.13 ± 0.075	2.88 ± 0.1	2.43 ± 0.099
VNHLLLFAREIAKSQDK [DPB4]	2.06 ± 0.15	2.85 ± 0.16	2.76 ± 0.14	2.08 ± 0.068
HLLPAFLKVKGLVKQHL [RET1]	3.2 ± 0.22	3.8 ± 0.2	–	–
SPIKNGSCTRQLAGKSG [YOR098C/NUP1]	3.32 ± 0.084	3.02 ± 0.056	2.35 ± 0.07	3.08 ± 0.069
PGNRNADNVDKILEQFE [FAS2]	1.63 ± 0.11	1.53 ± 0.18	2.5 ± 0.19	2.5 ± 0.087
SVAKIRFPETMDETQTR [RPO21]	3.55 ± 0.073	3.34 ± 0.12	3.66 ± 0.063	3.59 ± 0.049
IKKPTSAVVSSNASRRK [RPN4]	2.47 ± 0.17	2.3 ± 0.17	2.36 ± 0.076	2.89 ± 0.27
TGWISKCTAEGIKVSLL [RPC25]	2.9 ± 0.14	3.12 ± 0.15	2.66 ± 0.08	2.95 ± 0.15
GDLVYARVCTAEKELEA [RRP40]	1.3 ± 0.09	1.51 ± 0.19	1.46 ± 0.19	1.2 ± 0.23
SVGLPSKVASSLVIIIL [ECM29]	2.21 ± 0.048	1.8 ± 0.041	2.28 ± 0.064	2.21 ± 0.061
EIGILDHVDGSSEFVSQ [RRP46]	1.69 ± 0.067	2.01 ± 0.059	2.24 ± 0.065	2.5 ± 0.064
ISVIETIRVVTENKIFV [RPN5]	1.6 ± 0.14	1.82 ± 0.1	1.9 ± 0.27	2.03 ± 0.093
SFVGDYMHDTELNYFVG [GRR1]	3.1 ± 0.068	3.04 ± 0.09	3.35 ± 0.061	3.22 ± 0.067
MTMQVAVPRDELGRSNY [FAS1]	2.7 ± 0.085	3 ± 0.11	2.99 ± 0.047	2.99 ± 0.092
EDVLVNQILMSVNFFVS [RPL1A]	1.91 ± 0.044	2.4 ± 0.045	2.08 ± 0.068	2.23 ± 0.035
STKKIQVATKYASLKLP [YMR129W/POM152]	1.78 ± 0.047	1.93 ± 0.036	1.55 ± 0.069	1.92 ± 0.038
HIKFSAGTEANAVSFDT [SRB4]	1.98 ± 0.068	2.16 ± 0.055	2.66 ± 0.052	2.21 ± 0.04
IRAELLNDRKVLFAAYK [RPB11]	2.18 ± 0.081	2.19 ± 0.063	2.45 ± 0.098	2.23 ± 0.061
KNLSLLAEEVVDNIVNK [SRP68]	3.15 ± 0.092	2.9 ± 0.13	3.16 ± 0.066	3.01 ± 0.089
RIPFSERKLKFSNRFLP [FAS1]	1.28 ± 0.084	1.17 ± 0.077	1.11 ± 0.13	1.31 ± 0.084
IDELIDTKLRLEKSKNE [YIL149C/MLP2]	2.62 ± 0.047	2.81 ± 0.045	2.8 ± 0.04	2.8 ± 0.032
